Test [1] has as its system NF-κB p50. Nature of the test: NF-κB p50 activity in nuclear extracts of latent CA5 T cells (TransAM NF-κB family ELISA). It is filed as cell-based. How it is done: FIGS. 7A-7D are graphs showing the kinetics of HRF-mediated induction of NF-κB activity. Jurkat or latently HIV-1 infected CA5 T cells were stimulated with optimal concentrations of PMA and HRF, and cells were harvested at the indicated time points. Nuclear extracts were generated and (FIGS. 7A and 7C) NF-κB p50 activity and (FIGS. 7B and 7D) NF-κB p65 activity were determined using the TransAM™ NF-κB family ELISA kit (Active Motif; Carlsbad, Calif.).
Cells were grown in RPMI medium supplemented with 10% FBS and 1% PSG to approximately 5×10^5 cells per milliliter. Cells were centrifuged and resuspended in fresh pre-warmed medium. PMA, HRF and/or JNKiV were added immediately at the indicated concentrations. The final cell density for the assay was 1×10^6 cells per milliliter. The culture flasks were kept in a humidified CO2 incubator at 37° C. For each time point, a 1 ml cell suspension was removed and immediately centrifuged at full speed in a tabletop centrifuge for 30 seconds. […] The protein concentration of the extracts was determined by using the BCA protein assay Kit (ThermoFisher). […] The absorbance at 595 nm was determined using a 96 well plate reader (Synergy HT, BIO-Tek; Winooski, Vt.).
NF-κB activity in nuclear extracts was quantified using the TransAM™ NF-κB family ELISA kit from Active Motif, Inc. (Carlsbad, Calif.) according to the manufacturer's instructions.
On the technique in general: In an ELISA, binding on a coated surface is turned into a signal by an enzyme label.

In test [2] the test system is HIV-1 replication in PBMCs. Nature of the test: HIV-1 replication in PBMCs infected with GFP reporter virus. It is filed as cell-based. Particulars: saturating HRF levels, 5 days post infection. How it is done: FIGS. 8A-8C show HRF induced NF-κB and cytokine expression in peripheral blood mononuclear cells (PBMCs). […] PBMCs were activated with optimal concentrations of either PHA-L or with HRF. Cells were harvested at the indicated time points. Nuclear extracts were generated and NF-κB p50 activity and NF-κB p65 activity were determined using the TransAM™ NF-κB family ELISA kit (Active Motif). […] PBMCs from four different healthy donors were stimulated with an anti-CD3/CD28 antibody combination and infected with a GFP reporter virus on day 4 post-stimulation. HIV-1 replication was monitored in the absence (C) or presence of HRF for 5 days and the achieved HIV-1 infection levels were determined by flow cytometric analysis for the percentage of EGFP-positive cells. All infections were normalized to the infection level in the untreated culture and the histogram represents the mean infection levels obtained in 4 donor cultures±standard deviation. […] PBMCs from four healthy donors were left unstimulated (C) or stimulated with an anti-CD3/CD28 antibody combination as a positive control or were stimulated with a concentration of HRF that would trigger maximum HIV-1 reactivation in CA5 T cells. Culture supernatants were collected after 24 hours and the concentrations of a panel of cytokines was determined by BioPlex analysis. […]

B1: HRF: flagellin polypeptide from Massilia timonae (SEQ ID NO:10), used as bacterial culture supernatant (protein)
chain: MASVINTNVPSLNSQRNLSTSQAQLNTSIQRLSSGMRINSAKDDAAGLAISDRMNSQIKGMTQATRNANDGVSMAQTAEGALSSSGDILQRIRELAVQSSNSSNSASDRKALQTEVTQLSSELNRIANTTEFNGQKLMDGTLGTANFQVGANAGQLISMTGANFNTSVYGNNQIAGDAAKAAATTSAAATGAFTISGYLGTSAAINTTDADTAKTIAASINNVTGDTGVTATARTDSFLKSAGGAHTMSLASDNSGTGEAVDISFTVGDGGDTADDYAAAISAFNAQTAKTGVTAEYDAVEKGLKLTNSAGENISLTNKAGSADIDMDTYAADGALMASALTLEAGDVGVANGRVTMDSEKSFSVAEGTDTGFELADSSALKSVAKIDISDFEGAQEAIKVADAALSAVNSQRAEYGALQSRFESAISNLSSSTENLSASRSRIVDTDFAAETAKMTRGQILQQAGTSMLAQANSLPNGVLSLLRG
Regarding B1, the “NF-κB p50 activity after the first 4 hours” value in test [1] is reported as “stabilizes at an elevated level”. The HIV-1 replication result in test [2] was “not significantly increased”.

For the origin of these results see US20140295012A1, “LATENT HUMAN IMMUNODEFICIENCY VIRUS REACTIVATION” (priority 2011, published 2014).
